Source: US20190389955A1 (HEMOGENYX PHARMACEUTICALS, published 2019)
Residue numbers refer to the chain shown, from its start. Names may count otherwise.

B1: MHC1695-3-30A (antibody, V domains shown)
VH: QVTLKESGPGILQPSQTLSLTCSFSGFSLSTSHMGVGWIRQPSGKGLEWLLHILWNDSVYYNPALKSRLTISKDTYNKQVFLKIANVDTADTATYYCARIVYYGISYVGYFDVWGAGTTVTVSS
VL: DIQMTQSPSSLSASLGERVSLTCRASQEISGYLSWLQQKPDGTIKRLIYAASTLNSGVPRRFSGSRSGSDYSLTISSLESEDFADYYCLQYASYPFTFGSGTKLEIK
notes: Mouse hybridoma monoclonal antibody
B2: MHC1692-1-23DA (antibody, V domains shown)
VH: QVTLKESGPGILQPSQTLSLTCSFSGFSLSTSTMGVGWIRQPSGKGLEWLLHILWNDSKYYNPALKSRLTISKDTYNKQVFLKIANVDTADTATYYCARIVYYSTYVGYFDVWGAGTTVTVSS
VL: B1 VL with N55H, R60K, S77R, F83V, K107R
notes: Mouse hybridoma monoclonal antibody (detected with anti-mouse IgG); also called Ab1-23DA
B3: MHC1694-1-18BA (antibody, V domains shown)
VH: B2 VH
VL: B1 VL with N55H, R60K, S77R, F83V, K107R
notes: Mouse hybridoma monoclonal antibody; also called Ab1-18New
B4: MHC1693-3-16HA (antibody, V domains shown)
VH: EVQLQQSGAELVRPGALVKLSCKGSGFNIKDYYIHWVKQRPEQGLEWIGRIDPENDITMYDPKFQGKASITADTSSNTAYLQLSSLTSEDTAVYYCARNGNFFAYWGQGTLVTVSA
VL: not shown
notes: Mouse hybridoma monoclonal antibody; also called Ab3-16HA
B5: MHC1696-2-8IA (antibody, V domains shown)
VH: EIQLQQSGPELVKPGASVKVSCKASGYSFIDYNMYWVKQSHGKSLEWIGYINPYNGGTSNNQKFKDKATLTVDKSSSTAFMHLNSLTSEDSAVYYCARGTTGDYWGQGTTLTVSS
VL: DTVLTQSPATLSVTPGDSVSLSCRASQSISNNLHWYQQKSHESPRLLIKYGFQSISGIPSRFSGSGSGTDFTLRINSVETEDFGMYFCQQTNSWPLTFGAGTKLELK
notes: Mouse hybridoma monoclonal antibody; also called A281A

Columns and labels:
[1] = biological target: T1, human FLT3/FLK2 receptor protein (human, UniProt P36888 27-993); assay: flow cytometry, purified antibody on SP2/0 cells expressing human FLT3/FLK2; same table: unstained 6063, secondary Ab 9522, isotype 11518
T1 construct: whole, on cells; Cell-surface target in the flow cytometry experiments (REH cells and SP2/0-Hu-FLT3 cells); also called CD135; Hu-FLT3
T1 sequence (looked up): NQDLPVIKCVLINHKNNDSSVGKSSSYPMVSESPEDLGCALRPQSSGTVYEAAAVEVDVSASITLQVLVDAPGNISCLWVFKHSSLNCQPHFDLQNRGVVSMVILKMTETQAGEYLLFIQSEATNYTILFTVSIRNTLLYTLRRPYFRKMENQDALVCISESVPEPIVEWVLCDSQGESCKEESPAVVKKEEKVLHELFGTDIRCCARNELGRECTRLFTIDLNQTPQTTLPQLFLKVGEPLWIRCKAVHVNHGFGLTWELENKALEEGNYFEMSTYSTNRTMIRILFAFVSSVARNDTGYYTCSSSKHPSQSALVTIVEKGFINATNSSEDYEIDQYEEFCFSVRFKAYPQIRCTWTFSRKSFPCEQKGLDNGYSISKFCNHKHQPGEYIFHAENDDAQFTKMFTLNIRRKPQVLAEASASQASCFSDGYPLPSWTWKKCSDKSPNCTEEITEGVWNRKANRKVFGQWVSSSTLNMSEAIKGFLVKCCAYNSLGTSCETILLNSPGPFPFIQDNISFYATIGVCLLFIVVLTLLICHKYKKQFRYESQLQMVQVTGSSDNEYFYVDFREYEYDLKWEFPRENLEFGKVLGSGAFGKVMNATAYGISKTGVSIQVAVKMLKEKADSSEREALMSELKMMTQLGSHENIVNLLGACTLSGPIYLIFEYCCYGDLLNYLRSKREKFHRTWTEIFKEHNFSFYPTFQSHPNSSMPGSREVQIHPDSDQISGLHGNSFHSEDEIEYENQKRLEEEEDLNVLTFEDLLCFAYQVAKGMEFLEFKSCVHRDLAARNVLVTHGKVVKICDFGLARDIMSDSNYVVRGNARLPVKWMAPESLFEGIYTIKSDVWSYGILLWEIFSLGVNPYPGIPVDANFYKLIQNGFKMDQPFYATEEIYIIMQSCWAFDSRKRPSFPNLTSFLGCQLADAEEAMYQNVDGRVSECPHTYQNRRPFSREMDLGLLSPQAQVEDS

[2] = biological target: T1, human FLT3/FLK2 receptor protein; assay: flow cytometry titration on REH cells; axis printed 'mg/ml', the text gives ng/ml
Procedure: (§1) Specificity of the monoclonal antibodies was determined by evaluating their affinity to the FLT3/FLK2 antigen. To define affinity of the anti-human FLT3/FLK2 antibodies, an Effective Concentration (EC) curve was built using flow cytometry. Nine monoclonal antibody clones were used to stain human REH cells that endogenously express human FLT3/FLK2. The concentration of the clones ranged from 1 ng/ml (6.25 pM) to 10,000 ng/ml (62.5 nM). […] The sequences of the clones are shown below.

[3] = biological target: T1, human FLT3/FLK2 receptor protein; assay: flow cytometry, hybridoma supernatant on REH cells; same table: unstained 1292, secondary Ab alone 6905 (0.78%), isotype 13307 (12%)
[4] = biological target: T1, human FLT3/FLK2 receptor protein; assay: flow cytometry titration on REH cells, MFI against antibody concentration; the box prints no unit, the axis is printed 'mg/ml', the text gives ng/ml
Procedure: as §1

[5] = biological target: T1, human FLT3/FLK2 receptor protein; assay: flow cytometry titration on REH cells, MFI against antibody concentration; the box prints no unit, the axis is printed 'mg/ml', the text gives ng/ml; clone taken from the legend paragraph 65 (FIG. 5E: Ab1-18New)
Procedure: as §1

[6] = biological target: T2, FLT3/FLK2 antigen (as used for Table 6) (human, UniProt P36888 27-541, limits assumed); assay: kinetic fit, method not stated (Table 6)
T2 construct: also called human FLT3/FLK2 receptor protein
T2 sequence (looked up): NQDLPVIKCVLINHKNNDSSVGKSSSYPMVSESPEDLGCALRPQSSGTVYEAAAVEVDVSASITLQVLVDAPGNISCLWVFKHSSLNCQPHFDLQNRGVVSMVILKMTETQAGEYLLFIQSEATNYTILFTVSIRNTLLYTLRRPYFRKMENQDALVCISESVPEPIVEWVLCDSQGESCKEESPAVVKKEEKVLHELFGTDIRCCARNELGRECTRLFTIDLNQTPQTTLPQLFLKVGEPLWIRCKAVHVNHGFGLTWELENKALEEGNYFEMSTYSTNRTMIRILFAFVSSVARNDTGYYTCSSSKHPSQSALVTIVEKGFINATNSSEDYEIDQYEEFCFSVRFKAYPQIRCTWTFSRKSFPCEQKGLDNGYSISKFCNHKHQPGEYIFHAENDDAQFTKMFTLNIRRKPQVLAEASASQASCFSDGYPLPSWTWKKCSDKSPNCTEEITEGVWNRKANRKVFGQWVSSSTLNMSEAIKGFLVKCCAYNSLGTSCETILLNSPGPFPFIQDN

Binder	MFI [1]	EC50 (read off the curve) [2]	% POSITIVE CELLS [3]	MFI (IgC FITC) [3]	EC50 [4]	EC50 [5]	Kd [6]	koff [6]	kon [6]
B1	151000	~1 µg/mL	48%	13000					
B2	119000	~0.06 µg/mL	49%	13300	0.0701 µg/mL				
B3		~0.08 µg/mL	58%	14700		0.0788 µg/mL	0.00576 nM	1.42e-05 s⁻¹	2.46e+06 M⁻¹ s⁻¹
B4	206000		57%	15200					
B5	128000	~0.1 µg/mL	30%	11000	0.0902 µg/mL		0.0503 nM	0.000111 s⁻¹	2.21e+06 M⁻¹ s⁻¹
